Assay results from patent US20030162258A1, “Inhibitors of G protein-mediated signaling, methods of making them, and uses thereof” (Northwestern University, priority 2000, published 2003).

Assays:
[1] = target: thrombin receptor, PAR-1, in human microvascular endothelial cells (HMEC) (human) (UniProt P25116); test: cell-based or functional assay
PAR-1 gene promotor = test: Thrombin-stimulated PAR-1 gene induction, luciferase reporter assay in HMEC; format: cell-based, human; settings: 10 nanomolar thrombin, four hours, pertussis toxin 100 nanograms per milliliter pretreatment
Description: Thrombin treatment of cells induces the expression of the gene encoding its GPCR, PAR-1. This induction is mediated through the PAR-1 gene promotor sequence. The PAR-1 gene promotor sequence can be made to direct the expression of a reporter gene such as, the luciferase gene, thereby providing a means of observing the level of PAR-1 gene induction occurring in response to thrombin treatment of cells.
A PAR-1 promoter sequence comprising 1.82 kilobases was inserted upstream of the gene, Firefly (Photinus pyralis) luciferase in a pGL2 vector DNA to generate the plasmid DNA, PCR-1/Luc. The sea pansy (Renilla reniformis) luciferase gene operably linked to the Herpes Simplex Virus-Thymidine Kinase promoter (TK) in a pRL vector DNA (TK/pRL) served as an internal control to correct for experimental variation. HMEC were co-transfected with 100 nanograms each of a reporter DNA, PCR-1/Luc or TK/pRL, and one of pcDNA3.1, pcDNA-Gαi, or pcDNA-GαiR using protocols and reagents described in the previous Example. Twenty four hours post-transfection, HMEC were incubated in serum-free culture media (Dulbecco's Modified Eagles Medium, DMEM) for 2 hr at 37° C., following which, thrombin was added to the culture media at a concentration of 10 nanomolar. The cells were then incubated at 37° C. for four hours and lysed. […]

UniProt P25116, sequence (P25116 42-425): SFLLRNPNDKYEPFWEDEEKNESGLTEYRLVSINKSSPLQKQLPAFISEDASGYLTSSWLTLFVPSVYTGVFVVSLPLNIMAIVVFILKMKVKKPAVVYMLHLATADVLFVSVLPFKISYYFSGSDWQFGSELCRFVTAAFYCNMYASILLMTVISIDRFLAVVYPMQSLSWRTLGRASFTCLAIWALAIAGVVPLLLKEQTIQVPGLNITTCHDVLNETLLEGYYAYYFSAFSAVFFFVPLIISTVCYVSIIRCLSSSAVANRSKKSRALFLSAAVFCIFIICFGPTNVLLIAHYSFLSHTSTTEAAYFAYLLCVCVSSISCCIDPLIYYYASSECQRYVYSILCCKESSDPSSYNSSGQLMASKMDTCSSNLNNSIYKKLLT

decrease in transendothelial electrical resistance (TEER) following thrombin stimulation, HMEC [1] [%] | Substance | level of luciferase activity after thrombin treatment (PAR-1 gene induction) (PAR-1 gene promotor)
23 | Gαs carboxy terminal peptide encoded by minigene pcDNA-Gαs (from UniProt P63092 384-394) | –
– | Pertussis toxin | blocked the increase in luciferase levels
